Positions count from the first letter of the chain named.
B1: variant 2-2 (antibody, V domains shown)
VH: EVQLLESGGGLVQPGGSLRLSCAASGFTFSRHAMNWVRQAPGKGLEWVSGISGSGDETYYADSVKGRFTISRDNSKNTLYLQMNSLRAEDTAVYYCARDLPASYYDSSGYYWHNGMDVWGQGTLVTVSS
VL: DIQMTQSPSSLSASVGDRVTITCRASQTINTYLNWYQQKPGKAPKLLIYSASTLQSGVPSRFSGSGSGTDFTLTISSLQPEDFATYYCQQSYSTFTFGQGTKVEIK
B2: variant 2-5 (antibody, V domains shown)
VH: EVQLLESGGGLVQPGGSLRLSCAASGFTFSDFAMAWVRQAPGKGLEWVSAISGSGDITYYADSVKGRFTISRDNSKNTLYLQMNSLRAEDTAVYYCAREADGLHSPWHFDLWGQGTLVTVSS
VL: DIQMTQSPSSLSASVGDRVTITCRASQSIHTYLNWYQQKPGKAPKLLIYAASALASGVPSRFSGSGSGTDFTLTISSLQPEDFATYYCQQSYSAPPYTFGQGTKVEIK
B3: 2-2 (antibody, V domains shown)
VH: B1 VH
VL: B1 VL
notes: also called variant 2-2
B4: 2-12 (antibody, V domains shown)
VH: EVQLLESGGGLVQPGGSLRLSCAASGFTFSDYPMNWVRQAPGKGLEWVSTISGSGGITFYADSVKGRFTISRDNSKNTLYLQMNSLRAEDTAVYYCVRHDEYSFDYWGQGTLVTVSS
VL: B2 VL with H30D, T31N, A50G, A51V, A55Q, Y92H, T98F
notes: also called variant 2-12
B5: 2-8 (antibody, V domains shown)
VH: B2 VH
VL: B2 VL with H30D
notes: also called variant 2-8
B6: 2-5 (antibody, V domains shown)
VH: B2 VH
VL: B2 VL
notes: also called variant 2-5
B7: 2-4 (antibody, V domains shown)
VH: B2 VH
VL: B2 VL with H30D
notes: also called variant 2-4
B8: SARS-CoV-2 S1 variant 2-2 (antibody, V domains shown)
VH: B1 VH
VL: B1 VL
B9: SARS-CoV-2 S1 variant 2-5 (antibody, V domains shown)
VH: B2 VH
VL: B2 VL
B10: 2-9 (antibody, V domains shown)
VH: EVQLLESGGGLVQPGGSLRLSCAASGFTFPRYAMSWVRQAPGKGLEWVSTISGSGSTTYYADSVKGRFTISRDNSKNTLYLQMNSLRAEDTAVYYCARLIDAFDIWGQGTLVTVSS
VL: DIQMTQSPSSLSASVGDRVTITCRASQRIGTYLNWYQQKPGKAPKLLIYAASNLEGGVPSRFSGSGSGTDFTLTISSLQPEDFATYYCQQNYSTTWTFGQGTKVEIK
notes: also called variant 2-9
B11: variant 2-9 (antibody, V domains shown)
VH: B10 VH
VL: B10 VL
B12: variant 2-1 (antibody, V domains shown)
VH: EVQLLESGGGLVQPGGSLRLSCAASGFTFSNYATDWVRQAPGKGLEWVSIISGSGGATYYADSVKGRFTISRDNSKNTLYLQMNSLRAEDTAVYYCAKGGYCSSDTCWWEYWLDPWGQGTLVTVSS
VL: DIQMTQSPSSLSASVGDRVTITCRASQSIHRFLNWYQQKPGKAPKLLIYAASNLHSGVPSRFSGSGSGTDFTLTISSLQPEDFATYYCQQSYGLPPTFGQGTKVEIK
B13: variant 2-2 (antibody, V domains shown)
VH: B1 VH
VL: B1 VL
B14: variant 3-10 (antibody, V domains shown)
VH: EVQLLESGGGLVQPGGSLRLSCAASGFTFRSHAMSWVRQAPGKGLEWVSSISGGGASTYYADSVKGRFTISRDNSKNTLYLQMNSLRAEDTAVYYCARVKYLTTSSGWPRPYFDNWGQGTLVTVSS
VL: DIQMTQSPSSLSASVGDRVTITCRASQSIRKYLNWYQQKPGKAPKLLIYASSTLQRGVPSRFSGSGSGTDFTLTISSLQPEDFATYYCQQSLSTPFTFGGGTKVEIK
B15: variant 2-4 (antibody, V domains shown)
VH: B2 VH
VL: B2 VL with H30D
B16: variant 2-12 (antibody, V domains shown)
VH: B4 VH
VL: B2 VL with H30D, T31N, A50G, A51V, A55Q, Y92H, T98F
B17: variant 2-8 (antibody, V domains shown)
VH: B2 VH
VL: B2 VL with H30D
B18: variant 2-5 (antibody, V domains shown)
VH: B2 VH
VL: B2 VL
B19: variant 2-13 (antibody, V domains shown)
VH: B4 VH with T50A, G56D, I57N, F59Y
VL: B2 VL with H30D, A50G, A55E, Y92H, T98F

The binders below were run against T1, SARS-CoV-2 spike on live SARS-CoV-2 virus (SARS-CoV-2, UniProt P0DTC2 14-1273) (assay: cell-based or functional assay).

Row | Binder | EC80
1 | B1 | 355 µg/mL
2 | B2 | 106 µg/mL

Each binder was assayed against SARS-CoV-2 spike on VSV-pseudotype SARS-CoV-2 (SARS-CoV-2, UniProt P0DTC2 14-1273) (assay: cell-based or functional assay).

Row | Binder | NC50
3 | B1 | 67.6 µg/mL
4 | B2 | 18.3 µg/mL

Each binder was assayed against T2, SARS-CoV-2 S protein trimer (SARS-CoV-2, UniProt P0DTC2 14-1208) (assay: Carterra SPR, direct capture (DC), S trimer).

Row | Binder | Kd
5 | B3 | 1.4 nM
6 | B4 | 63.8 nM
7 | B5 | 47.4 nM
8 | B6 | 17.3 nM

These binders were tested against T2, SARS-CoV-2 S protein trimer (assay: Carterra SPR, DB format, S trimer).

Row | Binder | Kd
9 | B3 | 1.2 nM
10 | B7 | 4340 nM
11 | B4 | 6.4 nM
12 | B5 | 115 nM

What follows are binders tested against T3, Acro COVID S1 (S1N-C82E8) (SARS-CoV-2, UniProt P0DTC2 16-685) (assay: phage ELISA).
T3 construct: domain: subunit 1 (S1)

Row | Binder | ELISA fold over background
13 | B8 | 39.4 fold
14 | B9 | 38.3 fold

What follows are binders tested against T2, SARS-CoV-2 S protein trimer (assay: Carterra SPR, Fc capture, S trimer).

Row | Binder | Kd
15 | B10 | 23600 nM
16 | B3 | 0.8 nM
17 | B4 | 3.2 nM
18 | B6 | 90.2 nM

Target: T3, Acro COVID S1 (S1N-C82E8)
Experiment: phage ELISA
Remark: another data set of the same source

Row | Binder | ELISA fold over background
19 | B8 | 39.4 fold
20 | B9 | 38.3 fold

Each binder was assayed against Acro COVID S1 (S1N-C82E8) (SARS-CoV-2, UniProt P0DTC2 16-685) (assay: phage ELISA).

Row | Binder | specificity ELISA, fold over background
21 | B11 | 24.1 fold over background
22 | B12 | 39.3 fold over background
23 | B13 | 39.4 fold over background
24 | B14 | 1.2 fold over background
25 | B15 | 37.7 fold over background
26 | B16 | 39.8 fold over background
27 | B17 | 35.9 fold over background
28 | B18 | 38.3 fold over background
29 | B19 | 27.3 fold over background

Target: T1, SARS-CoV-2 spike on live SARS-CoV-2 …
Experiment: cell-based or functional assay
Remark: another data set of the same source

Row | Binder | EC50
30 | B1 | 67.6 µg/mL
31 | B2 | 18.3 µg/mL
